{
  "source": "patent US20210077621A1",
  "about": "(published 2021)",
  "target": "human MASP-2 (human, UniProt O00187 16-686)",
  "sequence (O00187 16-686)": "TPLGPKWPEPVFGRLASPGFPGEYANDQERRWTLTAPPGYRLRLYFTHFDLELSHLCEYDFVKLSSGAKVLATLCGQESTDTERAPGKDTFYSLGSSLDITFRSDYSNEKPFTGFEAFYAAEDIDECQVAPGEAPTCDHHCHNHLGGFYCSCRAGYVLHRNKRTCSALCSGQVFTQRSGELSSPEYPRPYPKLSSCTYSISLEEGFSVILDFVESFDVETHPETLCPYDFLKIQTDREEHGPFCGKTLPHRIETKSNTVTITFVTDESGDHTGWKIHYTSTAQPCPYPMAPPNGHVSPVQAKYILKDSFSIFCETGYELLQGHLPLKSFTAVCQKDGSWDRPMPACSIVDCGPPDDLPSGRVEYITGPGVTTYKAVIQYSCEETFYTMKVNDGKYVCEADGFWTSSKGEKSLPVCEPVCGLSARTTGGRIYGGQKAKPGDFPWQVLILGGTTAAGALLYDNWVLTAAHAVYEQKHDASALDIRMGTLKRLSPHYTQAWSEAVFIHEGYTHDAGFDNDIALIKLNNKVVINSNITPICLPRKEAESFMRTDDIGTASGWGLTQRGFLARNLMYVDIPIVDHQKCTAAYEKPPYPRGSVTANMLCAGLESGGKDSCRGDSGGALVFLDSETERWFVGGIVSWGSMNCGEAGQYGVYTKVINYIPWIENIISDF",
  "assay": "cell-based or functional assay",
  "data": [
    {"binder": "17D20m_d3521N11 (scFv, V domains shown) VH: QVTLKESGPVLVKPTETLTLTCTVSGFSLSRGKMGVSWIRQPPGKALEWLAHIFSSDEKSYRTSLKSRLTISKDTSKNQVVLTMTNMDPVDTATYYCARIRRGGIDYWGQGTLVTVSS VL: SYELIQPPSVSVAPGQTATITCAGDNLGKKRVHWYQQRPGQAPVLVIYDDSDRPSGIPDRFSASNSGNTATLTITRGEAGDEADYYCQVWDIATDHVVFGGGTKLTVL", "values": [
      {"measurement": "1% human serum C3 assay (IC50 nM)", "result": 26, "unit": "nM"},
      {"measurement": "90% human serum C3 assay (IC50 nM)", "result": "> 1000", "unit": "nM"},
      {"measurement": "90% human serum C4 assay (IC50 nM)", "result": 140, "unit": "nM"}
    ]}
  ]
}
